# Measurements: US20150344570A1 (published 2015)
# T1: FcγRIIa R (human, UniProt P12318 34-217)
# T1 construct: extracellular domain; Soluble His-tagged extracellular domain expressed in FreeStyle293 cells; analyte in Biacore; also called FcgRIIa R; FcgRIIaR; not shown: His tag attached to the C terminus
# T1 sequence (looked up): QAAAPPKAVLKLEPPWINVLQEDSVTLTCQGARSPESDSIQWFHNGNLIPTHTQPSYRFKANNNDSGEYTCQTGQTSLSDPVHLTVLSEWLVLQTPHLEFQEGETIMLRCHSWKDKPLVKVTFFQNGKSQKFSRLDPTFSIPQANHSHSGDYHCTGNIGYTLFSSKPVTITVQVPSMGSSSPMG
# T2: FcγRIIa R (extracellular domain, His tag at the C terminus) (human, UniProt P12318 34-217)
# T2 construct: extracellular domain; Soluble analyte in Biacore; also called FcgRIIa R type; 2aR
# T2 sequence (looked up): T1 sequence (looked up)
# B1: GpH7-A5/GpH7-B3 variant Y300_05P/GpL16-k0 (antibody, human IgG1, kappa)
# heavy 1: not shown
# heavy 2: not shown
# light: DIVMTQSPLSLPVTPGEPASISCQASESLVHSNRNTYLHWYLQKPGQSPQLLIYKVSNRFSGVPDRFSGSGSGTDFTLKISRVEAEDVGVYYCSQNTHVPPTFGQGTKVEIERTVAAPSVFIFPPSDEQLKSGTASVVCLLNNFYPREAKVQWKVDNALQSGNSQESVTEQDSKDSTYSLSSTLTLSKADYEKHKVYACEVTHQGLSSPVTKSFNRGEC
# notes: Heterodimerized anti-glypican-3 IgG1 antibody; alteration only in the GpH7-B3 H chain; position in EU numbering; also called He Ab
# B2: GpH7-A5/GpH7-B3 variant T335_15Y/GpL16-k0 (antibody, human IgG1, kappa)
# heavy 1: not shown
# heavy 2: not shown
# light: B1 light
# notes: heterodimerized; also called He Ab
# B3: GpH7-A5/GpH7-B3 variant K334_07I/GpL16-k0 (antibody, human IgG1, kappa)
# heavy 1: not shown
# heavy 2: not shown
# light: B1 light
# notes: as for B2
# B4: GpH7-A5/GpH7-B3 variant I332_04F/GpL16-k0 (antibody, human IgG1, kappa)
# heavy 1: not shown
# heavy 2: not shown
# light: B1 light
# notes: as for B2
# B5: GpH7-A5/GpH7-B3 variant K326_14T/GpL16-k0 (antibody, human IgG1, kappa)
# heavy 1: not shown
# heavy 2: not shown
# light: B1 light
# notes: as for B2
# B6: GpH7-A5/GpH7-B3 variant Y296_20W/GpL16-k0 (antibody, human IgG1, kappa)
# heavy 1: not shown
# heavy 2: not shown
# light: B1 light
# notes: as for B2
# B7: GpH7-A5/GpH7-B3 variant T335_18N/GpL16-k0 (antibody, human IgG1, kappa)
# heavy 1: not shown
# heavy 2: not shown
# light: B1 light
# notes: as for B2
# B8: GpH7-A5/GpH7-B3 variant P238_08L/GpL16-k0 (antibody, human IgG1, kappa)
# heavy 1: not shown
# heavy 2: not shown
# light: B1 light
# notes: as for B2
# B9: GpH7-A5/GpH7-B3 variant S267_02A/GpL16-k0 (antibody, human IgG1, kappa)
# heavy 1: not shown
# heavy 2: not shown
# light: B1 light
# notes: as for B2
# B10: GpH7-A5/GpH7-B3 variant K334_14T/GpL16-k0 (antibody, human IgG1, kappa)
# heavy 1: not shown
# heavy 2: not shown
# light: B1 light
# notes: as for B2
# B11: GpH7-A5/GpH7-B3 variant L328_04F/GpL16-k0 (antibody, human IgG1, kappa)
# heavy 1: not shown
# heavy 2: not shown
# light: B1 light
# notes: as for B2
# B12: GpH7-A5/GpH7-B3 variant K326_06M/GpL16-k0 (antibody, human IgG1, kappa)
# heavy 1: not shown
# heavy 2: not shown
# light: B1 light
# notes: as for B2
# B13: GpH7-A5/GpH7-B3 variant K326_19Q/GpL16-k0 (antibody, human IgG1, kappa)
# heavy 1: not shown
# heavy 2: not shown
# light: B1 light
# notes: as for B2
# B14: GpH7-A5/GpH7-B3 variant T335_06M/GpL16-k0 (antibody, human IgG1, kappa)
# heavy 1: not shown
# heavy 2: not shown
# light: B1 light
# notes: as for B2
# B15: GpH7-A5/GpH7-B3 variant H268_13S/GpL16-k0 (antibody, human IgG1, kappa)
# heavy 1: not shown
# heavy 2: not shown
# light: B1 light
# notes: as for B2
# B16: GpH7-A5/GpH7-B3 variant V266_06M/GpL16-k0 (antibody, human IgG1, kappa)
# heavy 1: not shown
# heavy 2: not shown
# light: B1 light
# notes: as for B2
# B17: GpH7-A5/GpH7-B3 variant L328_15Y/GpL16-k0 (antibody, human IgG1, kappa)
# heavy 1: not shown
# heavy 2: not shown
# light: B1 light
# notes: as for B2
# B18: GpH7-A5/GpH7-B3 variant T335_16H/GpL16-k0 (antibody, human IgG1, kappa)
# heavy 1: not shown
# heavy 2: not shown
# light: B1 light
# notes: as for B2
# B19: GpH7-A5/GpH7-B3 variant P271_01G/GpL16-k0 (antibody, human IgG1, kappa)
# heavy 1: not shown
# heavy 2: not shown
# light: B1 light
# notes: as for B2
# B20: GpH7-A5/GpH7-B3 variant Y300_04F/GpL16-k0 (antibody, human IgG1, kappa)
# heavy 1: not shown
# heavy 2: not shown
# light: B1 light
# notes: as for B2
# B21: GpH7-A5/GpH7-B3 variant S267_07I/GpL16-k0 (antibody, human IgG1, kappa)
# heavy 1: not shown
# heavy 2: not shown
# light: B1 light
# notes: as for B2
# B22: GpH7-A5/GpH7-B3 variant K334_16H/GpL16-k0 (antibody, human IgG1, kappa)
# heavy 1: not shown
# heavy 2: not shown
# light: B1 light
# notes: as for B2
# B23: GpH7-A5/GpH7-B3 variant K334_15Y/GpL16-k0 (antibody, human IgG1, kappa)
# heavy 1: not shown
# heavy 2: not shown
# light: B1 light
# notes: as for B2
# B24: GpH7-A5/GpH7-B3 variant S239_01G/GpL16-k0 (antibody, human IgG1, kappa)
# heavy 1: not shown
# heavy 2: not shown
# light: B1 light
# notes: as for B2
# B25: GpH7-A5/GpH7-B3 variant I332_10E/GpL16-k0 (antibody, human IgG1, kappa)
# heavy 1: not shown
# heavy 2: not shown
# light: B1 light
# notes: as for B2
# B26: GpH7-A5/GpH7-B3 variant L328_06M/GpL16-k0 (antibody, human IgG1, kappa)
# heavy 1: not shown
# heavy 2: not shown
# light: B1 light
# notes: as for B2
# B27: GpH7-A5/GpH7-B3 variant H268_18N/GpL16-k0 (antibody, human IgG1, kappa)
# heavy 1: not shown
# heavy 2: not shown
# light: B1 light
# notes: as for B2
# B28: GpH7-A5/GpH7-B3 variant T335_09D/GpL16-k0 (antibody, human IgG1, kappa)
# heavy 1: not shown
# heavy 2: not shown
# light: B1 light
# notes: as for B2
# B29: GpH7-A5/GpH7-B3 variant S337_14T/GpL16-k0 (antibody, human IgG1, kappa)
# heavy 1: not shown
# heavy 2: not shown
# light: B1 light
# notes: as for B2
# B30: GpH7-A5/GpH7-B3 variant I332_15Y/GpL16-k0 (antibody, human IgG1, kappa)
# heavy 1: not shown
# heavy 2: not shown
# light: B1 light
# notes: as for B2
# B31: GpH7-A5/GpH7-B3 variant T335_08L/GpL16-k0 (antibody, human IgG1, kappa)
# heavy 1: not shown
# heavy 2: not shown
# light: B1 light
# notes: as for B2
# B32: GpH7-A5/GpH7-B3 variant L328_03V/GpL16-k0 (antibody, human IgG1, kappa)
# heavy 1: not shown
# heavy 2: not shown
# light: B1 light
# notes: as for B2
# B33: GpH7-A5/GpH7-B3 variant T335_19Q/GpL16-k0 (antibody, human IgG1, kappa)
# heavy 1: not shown
# heavy 2: not shown
# light: B1 light
# notes: as for B2
# B34: GpH7-A5/GpH7-B3 variant I332_09D/GpL16-k0 (antibody, human IgG1, kappa)
# heavy 1: not shown
# heavy 2: not shown
# light: B1 light
# notes: as for B2
# B35: GpH7-A5/GpH7-B3 variant T335_04F/GpL16-k0 (antibody, human IgG1, kappa)
# heavy 1: not shown
# heavy 2: not shown
# light: B1 light
# notes: as for B2
# B36: GpH7-A5/GpH7-B3 variant K326_09D/GpL16-k0 (antibody, human IgG1, kappa)
# heavy 1: not shown
# heavy 2: not shown
# light: B1 light
# notes: as for B2
# B37: GpH7-A5/GpH7-B3 variant L328_07I/GpL16-k0 (antibody, human IgG1, kappa)
# heavy 1: not shown
# heavy 2: not shown
# light: B1 light
# notes: as for B2
# B38: GpH7-A5/GpH7-B3 variant K326_10E/GpL16-k0 (antibody, human IgG1, kappa)
# heavy 1: not shown
# heavy 2: not shown
# light: B1 light
# notes: as for B2
# B39: GpH7-A5/GpH7-B3 variant H268_10E/GpL16-k0 (antibody, human IgG1, kappa)
# heavy 1: not shown
# heavy 2: not shown
# light: B1 light
# notes: as for B2
# B40: GpH7-A5/GpH7-B3 variant K334_18N/GpL16-k0 (antibody, human IgG1, kappa)
# heavy 1: not shown
# heavy 2: not shown
# light: B1 light
# notes: as for B2
# B41: GpH7-A5/GpH7-B3 variant S267_01G/GpL16-k0 (antibody, human IgG1, kappa)
# heavy 1: not shown
# heavy 2: not shown
# light: B1 light
# notes: as for B2
# B42: GpH7-A5/GpH7-B3 variant K334_03V/GpL16-k0 (antibody, human IgG1, kappa)
# heavy 1: not shown
# heavy 2: not shown
# light: B1 light
# notes: as for B2
# B43: GpH7-A5/GpH7-B3 variant G236_10E/GpL16-k0 (antibody, human IgG1, kappa)
# heavy 1: not shown
# heavy 2: not shown
# light: B1 light
# notes: as for B2
# B44: GpH7-A5/GpH7-B3 variant G236_09D/GpL16-k0 (antibody, human IgG1, kappa)
# heavy 1: not shown
# heavy 2: not shown
# light: B1 light
# notes: as for B2
# B45: GpH7-A5/GpH7-B3 variant H268_09D/GpL16-k0 (antibody, human IgG1, kappa)
# heavy 1: not shown
# heavy 2: not shown
# light: B1 light
# notes: as for B2
# B46: GpH7-A5/GpH7-B3 variant K326_16H/GpL16-k0 (antibody, human IgG1, kappa)
# heavy 1: not shown
# heavy 2: not shown
# light: B1 light
# notes: as for B2
# B47: GpH7-A5/GpH7-B3 variant T335_20W/GpL16-k0 (antibody, human IgG1, kappa)
# heavy 1: not shown
# heavy 2: not shown
# light: B1 light
# notes: as for B2
# B48: GpH7-A5/GpH7-B3 variant S239_09D/GpL16-k0 (antibody, human IgG1, kappa)
# heavy 1: not shown
# heavy 2: not shown
# light: B1 light
# notes: as for B2
# Biological target: T1, FcγRIIa R
# Assay: ratio of He/Con_2aR to He/Con_2b (binding to FcγRIIb as reference); SPR
row,He_2aR/2b (IIaR/IIb),Binder
1,1.47,B1

# Biological target: T1, FcγRIIa R
# Assay: SPR (Biacore), antibody captured via antigen peptide, FcγR as analyte
# Protocol: The heterodimerized antibodies He Abs in which one of the H chains was introduced with an alteration were assayed for their binding activities to each activating FcγR and inhibitory FcγR according to the method described in Example 4. […] The activating FcγRs in FIGS. 26, 27, 28, and 29 are FcγRIa, FcγRIIa (R), FcγRIIa (H), and FcγRIIIa, respectively.
# (§1) Analysis of interaction between objective antibody and the FcγR was carried out using Biacore T100 (GE Healthcare). HBS-EP+ (GE Healthcare) was used as the running buffer, and the measurement temperature was set to 25° C. Chips produced by immobilizing the antigen peptide by the amine coupling method to a Series S Sencor Chip CM5 (GE Healthcare), or alternatively, chips produced by allowing preliminarily biotinylated antigen peptides to interact with and immobilize onto a Series S Sensor Chip SA (certified) (GE Healthcare) were used. Antibodies of interest were captured onto an antigen peptide-immobilized chip, and allowed to interact to each FcγR diluted with running buffer. To regenerate and repeatedly use the chip, the antibodies captured on the chip were washed off by reacting 10 mM glycine-HCl, pH 1.5.
row,He/Con_2aR (IIaR binding relative to GpH7-A5/GpH7-B3/GpL16-k0),Binder
1,10.8 % of control (control = 100),B1

# Biological target: T2, FcγRIIa R (extracellular domain, His …)
# Assay: SPR (Biacore), relative binding, control GpH7-A5/GpH7-B3/GpL16-k0 = 100
# Protocol: as §1
row,He/Con_2aR,Binder
1,111 % of control,B2
2,114 % of control,B3
3,105 % of control,B4
4,134 % of control,B5
5,110 % of control,B6
6,106 % of control,B7
7,140 % of control,B8
8,155 % of control,B9
9,112 % of control,B10
10,138 % of control,B11
11,138 % of control,B12
12,129 % of control,B13
13,105 % of control,B14
14,127 % of control,B15
15,150 % of control,B16
16,136 % of control,B17
17,108 % of control,B18
18,144 % of control,B19
19,108 % of control,B20
20,111 % of control,B21
21,109 % of control,B22
22,108 % of control,B23
23,128 % of control,B24
24,114 % of control,B25

row,He/Con_2aR,Binder
1,115 % of control,B26
2,128 % of control,B27
3,110 % of control,B28
4,110 % of control,B29
5,110 % of control,B30
6,108 % of control,B31
7,116 % of control,B32
8,106 % of control,B33
9,119 % of control,B34
10,108 % of control,B35
11,148 % of control,B36
12,124 % of control,B37
13,148 % of control,B38
14,148 % of control,B39
15,112 % of control,B40
16,113 % of control,B41
17,117 % of control,B42
18,125 % of control,B43
19,106 % of control,B44
20,149 % of control,B45
21,120 % of control,B46
22,109 % of control,B47
23,137 % of control,B48
